Assay results from patent US20080170994A1 (ARMAGEN TECHNOLOGIES, published 2008).
Blank lines part the entries; values can stand above or below the binder they belong to.

Tests used:
Aβ^1-40 amyloid peptide [1] = molecular target: T1, Aβ^1-40 amyloid peptide (human, UniProt P05067 672-711); assay: IRMA: competition with [125I]-murine anti-Aβ MAb on plated Aβ^1-40
T1 construct: domain: Aβ^1-40; Plated on 96-well plates in the ELISA and the IRMA; also called Aβ^1-40 peptide; 40 amino acid Aβ amyloid peptide of AD
Procedure: (§1) FIG. 34. Aβ¹⁻⁴⁰ immunoradiometric assay (IRMA) measures the binding of the [¹²⁵I]-murine anti-Aβ MAb to Aβ¹⁻⁴⁰ that is plated in wells of a 96-well plate. The murine anti-Aβ MAb is the original murine MAb against Aβ purified from hybridoma conditioned medium. In the absence of competitors of binding, approximately 20% of the total [¹²⁵I]-anti-Aβ MAb is bound to the Aβ¹⁻⁴⁰. […] The affinity of the fusion antibody for Aβ¹⁻⁴⁰ is equal to the affinity of the original murine anti-Aβ¹⁻⁴⁰ MAb
(§2) The affinity of the fusion antibody for binding to Aβ¹⁻⁴⁰ was compared to the same affinity of the murine hybridoma generated anti-Aβ MAb with an immunoradiometric assay (IMRA). In this assay, the Aβ¹⁻⁴⁰ is plated in 96-well plates, and the binding of [¹²⁵I]-murine anti-Aβ MAb to the […] is measured. […] Therefore, the affinity of the fusion antibody for Aβ¹⁻⁴⁰ is identical to that of the original 150 kDa hetero-tetrameric murine anti-Aβ MAb. This was a surprising finding, since the affinity of a ScFv for the target antigen is generally much lower than for the full, tetrameric MAb molecule. Owing to the bivalency of the tetrameric MAb, the affinity for the antigen is higher than the affinity of the monomeric ScFv. The high affinity of the ScFv moiety of the fusion antibody for Aβ¹⁻⁴⁰ is attributed to the design of the fusion antibody molecule, which places the ScFv in a dimeric or bivalent conformation (FIG. 26).

[2] = molecular target: BBB insulin receptor of the Rhesus monkey (Rhesus monkey, UniProt Q28516 1-210); assay: cell-based or functional assay
[3] = molecular target: T2, human insulin receptor (HIR) extracellular domain (ECD) (human, UniProt P06213 28-956, limits assumed); assay: ELISA on affinity purified HIR ECD
T2 construct: extracellular domain; Solid phase antigen of the HIR ELISA; also called HIR ECD; purified human insulin receptor
Procedure: The affinity of the fusion antibody for binding to the human insulin receptor (HIR) extracellular domain (ECD) was measured with an ELISA using affinity purified HIR ECD obtained from medium conditioned by CHO cells permanently transfected with the HIR ECD gene. […] The 50% saturation of binding, ED₅₀, is 0.53±0.02 nM for the chimeric HIRMAb. The ED₅₀ of fusion antibody binding to the HIR is 1.0±0.1 nM (FIG. 35). […] The HIR at the BBB is an heterotetrameric molecule comprised of two alpha and two beta chains. […] There is specific binding of the [¹²⁵I]-fusion antibody to human brain capillaries in a time-dependent process, whereas binding of the [¹²⁵I]-mouse anti-Aβ antibody is constant with time, and is non-specific (FIG. 36B).

Aβ^1-40 amyloid peptide [4] = molecular target: T1, Aβ^1-40 amyloid peptide; assay: IRMA on plated Aβ^1-40
Aβ^1-40 amyloid peptide [5] = molecular target: T1, Aβ^1-40 amyloid peptide; assay: IRMA: [125I]-murine anti-Aβ MAb on plated Aβ^1-40, unlabelled antibody as competitor
Procedure: as §1
as §2, with “The high affinity of the ScFv moiety of the fusion antibody for Aβ¹⁻⁴⁰ is attributed to the design of the fusion antibody molecule, which places the ScFv in a dimeric or bivalent conformation (FIG. 26).” left out

Kd (Aβ^1-40 amyloid peptide [1]): 24 nM
brain volume of distribution (VD) in Rhesus monkey at 3 hours after intravenous injection [2]: > 10 fold
EC50 [3]: 1 nM
B1: anti-Aβ ScFv/chimeric HIRMAb fusion antibody (bispecific antibody, human IgG1, kappa)
heavy: not shown
light: DIQMTQSPSSLSASLGERVSLTCRASQDIGGNLYWLQQGPDGTIKRLIYATSSLDSGVPKRFSGSRSGSDYSLTISSLESEDFVDYYCLQYSSSPWTFGGGTKMEIKRTVAAPSVFIFPPSDEQLKSGTASVVCLLNNFYPREAKVQWKVDNALQSGNSQESVTEQDSKDSTYSLSSTLTLSKADYEKHKVYACEVTHQGLSSPVTKSFNRGEC
notes: also called fusion protein; HIRMAb-mAβScFv

Ki (Aβ^1-40 amyloid peptide [1]): 182 nM
fold decrease of affinity against the Asn-497 fusion antibody (Aβ^1-40 amyloid peptide [4]): ~6 fold
B2: Ala-497 form of the antibody fusion protein (N497A) (bispecific antibody, human IgG1, kappa)
heavy: not shown
light: B1 light
notes: also called fusion antibody with the N497A mutation

Ki (Aβ^1-40 amyloid peptide [1]): 271 nM
fold decrease of affinity against the Ser-499 fusion antibody (Aβ^1-40 amyloid peptide [4]): 8 fold
B3: Ala-499 form of the antibody fusion protein (S499A) (bispecific antibody, human IgG1, kappa)
heavy: not shown
light: B1 light
notes: also called fusion antibody with the S499A mutation

Kd (Aβ^1-40 amyloid peptide [5]): 32 nM
B4: murine anti-Aβ MAb (hybridoma generated) (antibody, V domains shown)
VH: QVQLQQSGAELVKPGATVKLSCKASGYSFNSHYIYWVKQRPGQGLEWIGEINPSNGAMNFNEKFKNKATLTVDKSSSTAYMQLSSLTSEDSAVYYCVRDPTSYWGQGTLVTVSA
VL: DVVMTQTPLSLPVSLGDQASISCRSSQSLVHSYGNTYLHWYLQKPGQSPKLLIYKVSNRFSGVPDRFSGSGSGTDFTLKISRVEAEDLGVYFCSQSTHVPYTFGGGTKLEIKR
notes: 150 kDa hetero-tetrameric mouse IgG (gamma heavy chain, kappa light chain) purified from hybridoma medium; also called mouse anti-Aβ MAb; mouse anti-Aβ antibody

EC50 [3]: 0.53 nM
B5: chimeric HIRMAb (chimeric monoclonal antibody to the human insulin receptor) (antibody, human IgG1, kappa, V domains shown)
VH: QVQLQQSGPELVKPGALVKISCKASGYTFTNYDIHWVKQRPGQGLEWIGWIYPGDGSTKYNEKFKGKATLTADKSSSTAYMHLSSLTSEKSAVYFCAREWAYWGQGTLVTVSA
VL: DIQMTQSPSSLSASLGERVSLTCRASQDIGGNLYWLQQGPDGTIKRLIYATSSLDSGVPKRFSGSRSGSDYSLTISSLESEDFVDYYCLQYSSSPWTFGGGTKMEIKR
